Measured values taken from publication PMC8967061.

Molecular target: Factor H domains 19-20 (human) (UniProt P08603)
Test: MST; FH19-20 labelled with RED-tris-NTA dye (300 nM stock, mixed 1:1 with ligand), FhbA proteins titrated, PBS/0.025% Tween-20, 22 C

Sequence of Factor H domains 19-20 (human) (P08603 1104-1231): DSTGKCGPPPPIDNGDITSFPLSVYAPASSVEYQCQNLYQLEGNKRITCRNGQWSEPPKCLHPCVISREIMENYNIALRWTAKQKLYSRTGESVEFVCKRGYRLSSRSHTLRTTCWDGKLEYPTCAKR

BhFhbA Phe154Ala (from UniProt W5SB08 44-202) (domain or fragment)
Kd: 6 µM

FhbA homologue from Borrelia duttonii, wild type (natural protein)
Kd: 1.06 µM
